According to US20050158818A1, “Cephalosporin C acylases” (ANTIBIOTICOS S.p.A., priority 2004, published 2005):

Legend:
[1] = Acylase kinetics, hydrolysis of glutaryl 7-ACA (7-ACA determined at 415 nm with p-dimethylaminobenzaldehyde); type: biochemical; settings: glutaryl-7ACA as the substrate; after HiTrap Chelating purification
Method: Kinetics parameters of the mutants and HisVAC acylase were determined measuring the hydrolysis of cephalosporin C or glutaryl 7-ACA in 0.1 M phosphate buffer solution, pH 8.0 at 37° C. (then converted in units at 25° C.). The amount of 7-ACA is determined spectrophotometrically, using a standard curve, measuring the yellow intensity at 415 nm (Schiff base), resulting upon reaction with p-dimethylaminobenzaldehyde, using modified Bulasingham method (Biochem. Biophys. Acta 276, 250, 1972).
One acylase unit is the amount of enzyme (in solution or immobilized) which, under the assay conditions, produces one micromole of 7-ACA/minute.

[2] = Stability of the enzyme (pH, temperature); type: physicochemical; settings: 120 min incubation at pH ranging from 5 to 9
Method: (§1) Purified HisVAC is stable after 120 min incubation at pH ranging from 5 to 9. Enzymatic activity increases as a function of the pH of the reaction solution, in the range 5-10, reaching the highest value at 40° C. after 30 minutes reaction.

[3] = Dependence of enzymatic activity on pH and temperature; type: biochemical; settings: after 30 minutes reaction
Method: as §1

[4] = Conversion of cephalosporin C to 7-ACA with acylase in solution (HPLC); type: biochemical; settings: 2.27 g/l cephalosporin C, 167.2 total units
Method: 0.053 g cephalosporin C, dihydrate sodium salt (86% purity) is dissolved in 20 ml of 100 mM potassium phosphate buffer, pH 8 (2.27 g/l, assuming a 100% purity) and added to 6.4 ml purified acylase (167.2 total units). The mixture is incubated at 20° C., under stirring, keeping the pH at 8 by addition of diluted sodium hydroxide.

B1: wild-type: Designed cephalosporin C acylase based on Pseudomonas N176 acylase, Phe at 270, C-terminal LEHHHHHH tag (Seq. ID #1) (protein)
chain: MTMAANTDRAVLQAALPPLSGSLPIPGLSASVRVRRDAWGIPHIKASGEADAYRALGFVHSQDRLFQMELTRRKALGRAAEWLGAEAAEADILVRRLGMEKVCRRDFEALGVEAKDMLRAYVAGVNAFLASGAPLPVEYGLLGAEPEPWEPWHSIAVMRRLGLLMGSVWFKLWRMLALPVVGAANALKLRYDDGGRDLLCIPPGAEADRLEADLATLRPAVDALLKAMGGDASDAAGGGSNNWAVAPGRTATGRPILAGDPHRVFEIPGFYAQHHLACDRFDMIGLTVPGVPGFPHFAHNGKVAYCVTHAFMDIHDLYLEQFAGEGRTARFGNDFEPVAWSRDRIAVRGGADREFDIVETRHGPVIAGDPRDGAALTLRSVQFAETDLSFDCLTRMPGASTVAQLYDATRGWGLIDHNLVAGDVAGSIGHLVRARVPSRPRENGWLPVPGWSGEHEWRGWIPHEAMPRVIDPPGGIIVTANNRVVADDHPDYLCTDCHPPYRAERIMKRLVANPAFAVDDAAAIHADTLSPHVGLLRRRLEALGARDDSAAEGLRQMLVAWDGRMDAASEVASAYNAFRRALTRLVTDRSGLEQAISHPFAAVAPGVSPQGQVWWAVPTLLRDDDAGMLKGWSWDQALSEALSVASQNLTGRSWGEEHRPRFTHPLATQFPAWAGLLNPASRPIGGDGDTVLANGLVPSAGPQATYGALSRYVFDVGNWDNSRWVVFHGASGHPASAHYADQNAPWSDCAMVPMLYSWDRIAAEAVTSQELVPALEHHHHHH
modifications: C-terminal LEHHHHHH tag; Pseudomonas
- Specific activity of purified enzyme [1]: 6.5 U/mg proteins
- Stability to pH [2]: stable
- Temperature of highest enzymatic activity [3]: 40 °C
- Maximum conversion to 7-ACA ([4]; 100 mM potassium phosphate pH 8, 20° C., HPLC): 92.8%
- Time to maximum conversion to 7-ACA ([4]; pH 8, 20° C.): 150 min
